Results from patent US20080280333.

Target: T1, GlxR (Corynebacterium glutamicum) (UniProt Q79VI7)
T1 sequence: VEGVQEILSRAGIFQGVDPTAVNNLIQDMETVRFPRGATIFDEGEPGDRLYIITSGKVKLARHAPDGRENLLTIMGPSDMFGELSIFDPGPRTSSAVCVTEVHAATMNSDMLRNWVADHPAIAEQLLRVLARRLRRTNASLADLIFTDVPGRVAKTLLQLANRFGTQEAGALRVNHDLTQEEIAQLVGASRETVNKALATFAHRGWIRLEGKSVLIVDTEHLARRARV
Assay: cell_activity

## PaceB-lacZYA reporter (aceB promoter region)
E. coli DH5alphaF'-145 with pSL145, 27 mU with empty vector pMT1, repression
  activity (mU beta-galactosidase): 2.5
E. coli HL994, chromosomal PaceB-lacZYA, 237 with empty vector
  activity (beta-galactosidase activity): 128
